From patent US6548641 (MAX PLANCK GESELLSCHAFT ZUR FORDERUNG DER WISSENSCHAFTEN E V, dated 2003) come the findings set out here.

The assay deals with T1, epidermal growth factor receptor (EGF-R) (UniProt P00533 25-1210).
T1 construct: also called EGF receptor
The experiment in a line: co-immunoprecipitation with mAb 108.1 from 293 transfectants, immunoblot with anti-PTP antisera. As to the method:
To standardize the experimental parameters, three chimeric RPTKs having EGF-R extracellular domains were tested (HER1-2, EK-R, EP-R) (Seedorf, K. et al., *J. Biol Chem.* 266:12424 (1991)), as was EGF-R itself (FIG. 8).
The precipitates were extensively washed, boiled in SDS sample buffer, and analyzed by 7.5% SDS-PAGE.

B1: PTP 1C protein tyrosine phosphatase (mouse) (enzyme)
chain: not shown
notes: Overexpressed transiently in human 293 cells
B1: the binding result is “no binding”.
